For the assay, the target named is Endothelin B receptor (ETRB) (human) (UniProt P24530). Nature of the assay: cell-based or functional assay.

Results on one substance are retold here after US20090214518A1.

A value given as a limit tells only on which side of the number the result lay.

Sequence of UniProt P24530 (P24530 27-442 limits assumed): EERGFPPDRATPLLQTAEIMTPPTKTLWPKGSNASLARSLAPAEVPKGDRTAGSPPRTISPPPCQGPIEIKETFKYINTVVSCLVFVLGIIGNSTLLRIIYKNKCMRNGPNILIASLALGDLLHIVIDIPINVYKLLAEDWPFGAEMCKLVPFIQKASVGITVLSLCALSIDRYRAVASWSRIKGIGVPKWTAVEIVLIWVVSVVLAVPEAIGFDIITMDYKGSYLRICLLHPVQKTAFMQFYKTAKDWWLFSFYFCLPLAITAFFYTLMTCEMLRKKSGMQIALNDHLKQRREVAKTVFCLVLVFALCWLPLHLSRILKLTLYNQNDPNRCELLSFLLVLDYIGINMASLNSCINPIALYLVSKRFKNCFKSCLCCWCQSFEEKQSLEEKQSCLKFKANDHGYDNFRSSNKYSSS

ETRB antagonist peptide, BQ-788 gave an ICAM-1 mRNA in HUVEC (qRT-PCR) of over 7 fold and an adherence of activated human T cells to HUVEC of 40%.
